Results as given in publication PMC7096399, “The Na,K-ATPase acts upstream of phosphoinositide PI(4,5)P2 facilitating unconventional secretion of Fibroblast Growth Factor 2” (Communications Biology, 2020).

Target: T1, ∆N25-FGF2, non-tagged form of FGF2 lacking 25 residues at the N-terminus (UniProt P09038-2 26-155)
T1 construct: FGF2, 18 kDa isoform (UniProtKB P09038-2), lacking 25 residues at the N-terminus; Untagged; also called untagged version of FGF2; source: E. coli, purified according to standard procedures
Test: AlphaScreen or HTRF; competition: His-FGF2-wt (62 nM) and GST-α1 variant (15 nM) with ∆N25-FGF2 competitor from 22.5 µM to 1.4 nM; apparent IC50 taken as the apparent KD
Settings: both partners purified

T1 sequence (P09038 159-288): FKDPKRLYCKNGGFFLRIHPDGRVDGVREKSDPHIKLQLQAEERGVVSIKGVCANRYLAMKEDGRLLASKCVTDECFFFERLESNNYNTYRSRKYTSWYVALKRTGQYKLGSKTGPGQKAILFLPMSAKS

B1: GST-α1-CD1-3, fusion of the three main loops of the cytoplasmic domain of the α1 subunit of the Na,K-ATPase (domain or fragment)
chain: not shown
In the case of B1, the Kd is reported as 1100 nM.
